Measured values: patent US20140303356A1
Read-outs that look alike come from different tables or passages of the source.

How the values were obtained:
[1] = target: CH2-CH3 construct G1 (human); experiment: native MS, monomer-dimer equilibrium of CH2-CH3 fragment
[2] = target: CH2-CH3 construct G1-K370T (human); experiment: as above
[3] = target: CH2-CH3 construct G1-K409R (human); experiment: native MS, monomer-dimer equilibrium of CH2-CH3 fragment, homodimer
[4] = target: CH2-CH3 construct G1-K409R (human); experiment: native MS, monomer-dimer equilibrium of CH2-CH3 fragment
[5] = target: CH2-CH3 construct G1-T350I (human); experiment: as above
[6] = target: CH2-CH3 construct G4 (human); experiment: as above
[7] = target: CH2-CH3 construct G4-E357T (human); experiment: as above
[8] = target: CH2-CH3 construct G4-F405A (human); experiment: as above
[9] = target: CH2-CH3 construct G4-F405L (human); experiment: as above
[10] = target: CH2-CH3 construct G4-K370E (human); experiment: as above
[11] = target: CH2-CH3 construct G4-K370Q (human); experiment: as above
[12] = target: CH2-CH3 construct G4-L351K (human); experiment: as above
[13] = target: CH2-CH3 construct G4-R409A (human); experiment: as above
[14] = target: CH2-CH3 construct G4-R409K (human); experiment: as above
[15] = target: CH2-CH3 construct G4-R409L (human); experiment: as above
[16] = target: CH2-CH3 construct G4-R409M (human); experiment: as above
[17] = target: CH2-CH3 construct G4-R409T (human); experiment: as above
[18] = target: CH2-CH3 construct G4-R409W (human); experiment: as above
[19] = target: CH2-CH3 construct G4-S364D (human); experiment: as above
[20] = target: IgG1-7D8-K409A (human) [IgG part: P01857]; experiment: cell-based or functional assay
[21] = target: IgG1-7D8-K409G (human) [IgG part: P01857]; experiment: cell-based or functional assay
[22] = target: IgG1-7D8-K409H (human) [IgG part: P01857]; experiment: cell-based or functional assay
[23] = target: IgG1-7D8-K409R (human) [IgG part: P01857]; experiment: cell-based or functional assay
[24] = target: CD20 on Daudi and Raji cells (UniProt P11836)
[25] = target: CD20 on Daudi and Raji cells (UniProt P11836); remark: listed apart in the source
[26] = target: recombinant extracellular domain of EGFR (UniProt P00533); experiment: sandwich ELISA: EGFR extracellular domain coated, detection with anti-idiotype 2F2 SAB1.1

Substance	Bispecific binding (% relative to positive control) [20]	Bispecific binding (% relative to positive control) [21]	Bispecific binding (% relative to positive control) [22]	Bispecific binding (% relative to positive control) [23]	also measured
CH2-CH3 construct G1	–	–	–	–	Kd [1]: 0.003 µM; fold-difference (against wild type CH2-CH3 fragment) [1]: 1 fold
CH2-CH3 construct G1-K370T	–	–	–	–	Kd [2]: 0.045 µM; fold-difference (against wild type CH2-CH3 fragment) [2]: 0.07 fold
CH2-CH3 construct G1-K409R	–	–	–	–	Kd [3]: 0.11 µM; Kd [4]: 0.11 µM; fold-difference (against wild type CH2-CH3 fragment) [4]: 0.03 fold
CH2-CH3 construct G1-T350I	–	–	–	–	Kd [5]: 0.007 µM; fold-difference (against wild type CH2-CH3 fragment) [5]: 0.4 fold
CH2-CH3 construct G4	–	–	–	–	Kd [6]: 0.048 µM; fold-difference (against wild type CH2-CH3 fragment) [6]: 1 fold
CH2-CH3 construct G4-E357T	–	–	–	–	Kd [7]: 41 µM; fold-difference (against wild type CH2-CH3 fragment) [7]: 0.0012 fold
CH2-CH3 construct G4-F405A	–	–	–	–	Kd [8]: 19 µM; fold-difference (against wild type CH2-CH3 fragment) [8]: 0.0025 fold
CH2-CH3 construct G4-F405L	–	–	–	–	Kd [9]: 25 µM; fold-difference (against wild type CH2-CH3 fragment) [9]: 0.0019 fold
CH2-CH3 construct G4-K370E	–	–	–	–	Kd [10]: 0.002 µM; fold-difference (against wild type CH2-CH3 fragment) [10]: 24 fold
CH2-CH3 construct G4-K370Q	–	–	–	–	Kd [11]: 0.011 µM; fold-difference (against wild type CH2-CH3 fragment) [11]: 4.3 fold
CH2-CH3 construct G4-L351K	–	–	–	–	Kd [12]: 0.74 µM; fold-difference (against wild type CH2-CH3 fragment) [12]: 0.06 fold
CH2-CH3 construct G4-R409A	–	–	–	–	Kd [13]: 0.16 µM; fold-difference (against wild type CH2-CH3 fragment) [13]: 0.3 fold
CH2-CH3 construct G4-R409K	–	–	–	–	Kd [14]: 0.008 µM; fold-difference (against wild type CH2-CH3 fragment) [14]: 6 fold
CH2-CH3 construct G4-R409L	–	–	–	–	Kd [15]: 0.015 µM; fold-difference (against wild type CH2-CH3 fragment) [15]: 3.2 fold
CH2-CH3 construct G4-R409M	–	–	–	–	Kd [16]: 0.003 µM; fold-difference (against wild type CH2-CH3 fragment) [16]: 16 fold
CH2-CH3 construct G4-R409T	–	–	–	–	Kd [17]: 0.72 µM; fold-difference (against wild type CH2-CH3 fragment) [17]: 0.07 fold
CH2-CH3 construct G4-R409W	–	–	–	–	Kd [18]: 34 µM; fold-difference (against wild type CH2-CH3 fragment) [18]: 0.0014 fold
CH2-CH3 construct G4-S364D	–	–	–	–	Kd [19]: 0.047 µM; fold-difference (against wild type CH2-CH3 fragment) [19]: 1.02 fold

Substance	Bispecific binding (% relative to positive control) [20]	Bispecific binding (% relative to positive control) [21]	Bispecific binding (% relative to positive control) [22]	Bispecific binding (% relative to positive control) [23]	also measured
IgG1-2F8-D399F (antibody)	13%	15%	15%	14%	–
IgG1-2F8-D399R (antibody)	47%	45%	52%	38%	Fab-arm exchange compared to the positive control, 20° C., 200 min [21]: 85%; Fab-arm exchange efficiency compared to the positive control, 15° C., 200 min [21]: 85%
IgG1-2F8-F405K (antibody)	29%	48%	40%	47%	–
IgG1-2F8-F405T (antibody)	35%	47%	46%	42%	–
IgG1-2F8-L368A (antibody)	33%	33%	37%	25%	–
IgG1-2F8-L368E (antibody)	32%	38%	42%	37%	–
IgG1-2F8-L368H (antibody)	26%	25%	29%	21%	–
IgG1-2F8-L368N (antibody)	47%	52%	54%	43%	–
IgG1-2F8-L368R (antibody)	55%	64%	91%	52%	Fab-arm exchange efficiency compared to the positive control, 15° C., 200 min [22]: 100%
IgG1-2F8-L368S (antibody)	39%	45%	53%	37%	–
IgG1-2F8-L368T (antibody)	42%	51%	56%	39%	–
IgG1-2F8-L368W (antibody)	56%	56%	60%	41%	–
IgG1-2F8-Y407Q (antibody)	4%	9%	44%	1%	–
IgG1-2F8-Y407W (antibody)	48%	53%	62%	47%	–
IgG1-7D8 (from UniProt P01857 1-330) (antibody)	–	–	–	–	EC50 (read off the curve) [24]: 0.5 µg/mL; EC50 (read off the curve) [25]: 1 µg/mL
IgG1-7D8-K409R (from UniProt P01857 1-330) (antibody)	–	–	–	–	EC50 (read off the curve) [24]: 0.4 µg/mL
bispecific antibody generated by 2-MEA-induced Fab-arm exchange between IgG1-2F8-F405L and IgG1-7D8-K409R (from UniProt P01857 1-330)	–	–	–	–	EC50 (read off the curve) [24]: 2 µg/mL; EC50 (read off the curve) [26]: 0.4 µg/mL

Now from value to substance, other results behind:

Bispecific binding (% relative to positive control) [20]	Bispecific binding (% relative to positive control) [21]	Bispecific binding (% relative to positive control) [22]	Bispecific binding (% relative to positive control) [23]	Substance	also measured
12%	14%	19%	10%	IgG1-2F8-D399H (antibody)	–
40%	43%	46%	34%	IgG1-2F8-D399K (antibody)	–
0%	0%	0%	0%	IgG1-2F8-D399Q (antibody)	–
32%	49%	60%	39%	IgG1-2F8-F405I (antibody)	–
34%	51%	39%	45%	IgG1-2F8-F405S (antibody)	Fab-arm exchange compared to the positive control, 20° C., 200 min [20]: 90%; Fab-arm exchange efficiency compared to the positive control, 15° C., 200 min [20]: 65%
36%	46%	43%	37%	IgG1-2F8-F405V (antibody)	–
17%	20%	18%	16%	IgG1-2F8-F405W (antibody)	–
49%	50%	54%	41%	IgG1-2F8-L368D (antibody)	–
46%	53%	53%	44%	IgG1-2F8-L368G (antibody)	–
42%	49%	51%	33%	IgG1-2F8-L368V (antibody)	–
44%	41%	49%	49%	IgG1-2F8-Y407L (antibody)	–
